Data on four molecules can be found in US20160223554A1, “METHODS FOR DIAGNOSIS, PROGNOSIS AND METHODS OF TREATMENT” (priority 2011, published 2016).

One assay concerns AML PBMC. As to the kind of experiment: Kinase inhibitor Signaling Arm, SCNP (Example 13). It counts as cell-based, human. Conditions: range over AML PBMC samples (N=6); short modulation, 15 minutes.
A further assay deals with AML blasts. As to the kind of experiment: SCNP phospho-flow signaling nodes in AML PBMC (Example 2, Study No. 1). The class given is cell-based, human. The settings on record: for Mean Value of CRs: CR patients; for Mean Value of CRs / Mean Value of NRs: Study No. 1; for Mean Value of NRs: NR patients. The gist of the method:
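Thawed AML cells, Amine Aqua-stained, rested 2 h at 37° C. at 1.25×10^6 cells/ml, then stimulated 10 min at 37° C. (stimuli prepared at 5× final). Methanol-permeabilized, then stained 30 min at RT with optimized antibody cocktail for flow cytometry.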

The mark [1] stands for this setting: Fold = log2(MFI modulated) - log2(MFI unmodulated), 9 CRs, Study No.1.
[2] abbreviates: Fold = log2(MFI modulated) - log2(MFI unmodulated), 25 NRs, Study No.1.
[3] abbreviates: Fold metric, Study No. 1, CRp patient included in NR group.
[4] abbreviates: Total Phospho metric, Study No. 1, CRp patient included in NR group.
Setting [5] is: read-out p-CREB, metric TotalPhospho.
The mark [6] stands for this setting: read-out p-Erk, metric TotalPhospho.
The mark [7] stands for this setting: read-out p-Plcγ2, metric TotalPhospho.
Where [8] appears, read: read-out p-Stat1, metric TotalPhospho.
Where [9] appears, read: read-out p-Stat3, metric TotalPhospho.

As for SCF: stem cell factor, ligand of c-Kit, in the assay with AML PBMC, the “percentage of growth factor responsive cells” value (shortened to “percentage”) is listed as 6%-49%. Also, the “p-Akt Fold, Mean Value of CRs” value in the assay with AML blasts (setting [1]) is 0.12. Also, in the assay with AML blasts (setting [2]), the “p-Akt Fold, Mean Value of NRs” value stood at 0.57. Besides, in the assay with AML blasts (setting [3]), the “Mean Value of CRs, p-Akt” value stood at 0.09; the “Mean Value of CRs, p-Erk” value is −0.06; the “Mean Value of NRs, p-Akt” value worked out at 0.56; the “Mean Value of NRs, p-Erk” value was determined as 0.11. Further, in the assay on AML blasts (setting [4]), the “Mean Value of CRs, p-CREB” value was found to be 1.32; the “Mean Value of CRs, p-Plcγ2” value was 1.80; the “Mean Value of NRs, p-CREB” value was 1.92; the “Mean Value of NRs, p-Plcγ2” value was determined as 2.79. For the same molecule, in the assay on AML blasts (read-out p-Akt, metric Fold), the “Mean Value of CRs” value was determined as 0.12 and the “Mean Value of NRs” value was 0.57. Moreover, in the assay on AML blasts (setting [5]), the “Mean Value of CRs” value is on record as 1.38 and the “Mean Value of NRs” value is on record as 1.92. In the assay with AML blasts (read-out p-Erk, metric Fold), the “Mean Value of CRs” value is −0.05 and the “Mean Value of NRs” value is listed as 0.11. Also, in the assay with AML blasts (setting [6]), the “Mean Value of CRs” value came to 1.87 and the “Mean Value of NRs” value was found to be 2.28. In the assay on AML blasts (setting [7]), the “Mean Value of CRs” value is 1.87 and the “Mean Value of NRs” value was found to be 2.81.

B1: FLT3L: fms-like tyrosine kinase receptor-3 ligand (protein, UniProt P49771 27-235, looked up)
Fms-related tyrosine kinase 3 …: TQDCSFQHSPISSDFAVKIRELSDYLLQDYPVTVASNLQDEELCGGLWRLVLAQRWMERLKTVAGSKMQGLLERVNTEIHFVTKCAFQPPPSCLRFVQTNISRLLQETSEQLVALKPWITRQNFSRCLELQCQPDSSTLPPPWSPRPLEATAPTAPQPPLLLLLLLPVGLLLLAAAWCLHWQRTRRRTPRPGEQVPPVPSPQDLLLVEH
Take B1: the “percentage” value in the assay on AML PBMC was 3%-22%. In the assay with AML blasts (setting [1]), the “p-Akt Fold, Mean Value of CRs” value is 0.18 and the “p-S6 Fold, Mean Value of CRs” value is given as 0.28. Moreover, in the assay with AML blasts (setting [2]), the “p-Akt Fold, Mean Value of NRs” value amounted to 0.64 and the “p-S6 Fold, Mean Value of NRs” value turned out to be 0.81. Besides, in the assay with AML blasts (setting [3]), the “Mean Value of CRs, p-Akt” value came to 0.10; the “Mean Value of CRs, p-CREB” value came out at 0.07; the “Mean Value of CRs, p-Erk” value is recorded as 0.08; the “Mean Value of CRs, p-Plcγ2” value is given as −0.14. In addition, in the assay with AML blasts (setting [3]), the “Mean Value of CRs, p-S6” value is 0.14; the “Mean Value of NRs, p-Akt” value is on record as 0.65; the “Mean Value of NRs, p-CREB” value is 0.36; the “Mean Value of NRs, p-Erk” value was 0.33. In addition, in the assay on AML blasts (setting [3]), the “Mean Value of NRs, p-Plcγ2” value is −0.08 and the “Mean Value of NRs, p-S6” value was determined as 0.83. Further, in the assay with AML blasts (setting [4]), the “Mean Value of CRs, p-CREB” value worked out at 1.39; the “Mean Value of CRs, p-Plcγ2” value amounted to 1.81; the “Mean Value of NRs, p-CREB” value was 2.13; the “Mean Value of NRs, p-Plcγ2” value stood at 2.78. Moreover, in the assay with AML blasts (read-out p-Akt, metric Fold), the “Mean Value of CRs” value stood at 0.18 and the “Mean Value of NRs” value worked out at 0.64. In addition, in the assay with AML blasts (setting [5]), the “Mean Value of CRs” value is listed as 1.50 and the “Mean Value of NRs” value turned out to be 2.12. For the same molecule, in the assay on AML blasts (setting [7]), the “Mean Value of CRs” value worked out at 1.88 and the “Mean Value of NRs” value stood at 2.80. In addition, in the assay with AML blasts (read-out p-S6, metric Fold), the “Mean Value of CRs” value is reported as 0.28 and the “Mean Value of NRs” value is 0.81.

B2: IL-27: interleukin-27, cytokine modulator (protein, UniProt Q8NEV9 29-243; Q14213 21-229, looked up)
Interleukin-27 subunit alpha: FPRPPGRPQLSLQELRREFTVSLHLARKLLSEVRGQAHRFAESHLPGVNLYLLPLGEQLPDVSLTFQAWRRLSDPERLCFISTTLQPFHALLGGLGTQGRWTNMERMQLWAMRLDLRDLQRHLRFQVLAAGFNLPEEEEEEEEEEEEERKGLLPGALGSALQGPAQVSWPQLLSTYRLLHSLELVLSRAVRELLLLSKAGHSVWPLGFPTLSPQP
Interleukin-27 subunit beta: RKGPPAALTLPRVQCRASRYPIAVDCSWTLPPAPNSTSPVSFIATYRLGMAARGHSWPCLQQTPTSTSCTITDVQLFSMAPYVLNVTAVHPWGSSSSFVPFITEHIIKPDPPEGVRLSPLAERQLQVQWEPPGSWPFPEIFSLKYWIRYKRQGAARFHRVGPIEATSFILRAVRPRARYYVQVAAQDLTDYGELSDWSLPATATMSLGK
In the case of B2, in the assay with AML blasts (setting [4]), the “Mean Value of CRs, p-CREB” value came out at 1.25; the “Mean Value of CRs, p-Stat1” value is recorded as 0.39; the “Mean Value of CRs, p-Stat3” value is reported as 1.01; the “Mean Value of NRs, p-CREB” value is listed as 2.36. In addition, in the assay with AML blasts (setting [4]), the “Mean Value of NRs, p-Stat1” value was found to be 0.81 and the “Mean Value of NRs, p-Stat3” value was 1.85. In addition, in the assay on AML blasts (setting [5]), the “Mean Value of CRs” value is 1.40 and the “Mean Value of NRs” value is 2.35. Further, in the assay with AML blasts (setting [8]), the “Mean Value of CRs” value worked out at 0.41 and the “Mean Value of NRs” value worked out at 0.82. Further, in the assay on AML blasts (setting [9]), the “Mean Value of CRs” value amounted to 1.07 and the “Mean Value of NRs” value is listed as 1.86.

B3: G-CSF: granulocyte colony-stimulating factor (protein, UniProt P09919 31-207, looked up)
Granulocyte …: TPLGPASSLPQSFLLKCLEQVRKIQGDGAALQEKLVSECATYKLCHPEELVLLGHSLGIPWAPLSSCPSQALQLAGCLSQLHSGLFLYQGLLQALEGISPELGPTLDTLQLDVADFATTIWQQMEELGMAPALQPTQGAMPAFASAFQRRAGGVLVASHLQSFLEVSYRVLRHLAQP
Consider B3, for which the “percentage” value with AML PBMC was 3%-56%. The “p-Stat5 Fold, Mean Value of CRs” value in the assay with AML blasts (setting [1]) turned out to be 0.47. Moreover, the “p-Stat5 Fold, Mean Value of NRs” value in the assay with AML blasts (setting [2]) amounted to 1.13. Also, in the assay on AML blasts (setting [3]), the “Mean Value of CRs, p-Stat3” value is 0.60; the “Mean Value of CRs, p-Stat5” value amounted to 0.33; the “Mean Value of NRs, p-Stat3” value was found to be 1.52; the “Mean Value of NRs, p-Stat5” value was determined as 1.15. Besides, in the assay with AML blasts (setting [4]), the “Mean Value of CRs, p-Stat3” value is listed as 1.40 and the “Mean Value of NRs, p-Stat3” value is reported as 2.74. In addition, in the assay with AML blasts (setting [9]), the “Mean Value of CRs” value came out at 1.66 and the “Mean Value of NRs” value came to 2.70. Besides, in the assay with AML blasts (read-out p-Stat5, metric Fold), the “Mean Value of CRs” value is reported as 0.47 and the “Mean Value of NRs” value worked out at 1.13.
